This is an account of results in US20210221899A1 (published 2021).

Residue numbers refer to the chain shown, from its start.

T1: human NGF (human, UniProt P01138 122-241)
T1 construct: also called human Nerve Growth Factor; hN
T1 chain: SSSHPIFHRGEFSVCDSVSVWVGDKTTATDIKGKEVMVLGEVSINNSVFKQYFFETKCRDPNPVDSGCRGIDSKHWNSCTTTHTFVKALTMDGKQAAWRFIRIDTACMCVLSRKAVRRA

T2: canine NGF (canine, UniProt Q29074 110-229 (pig entry), limits assumed)
T2 construct: The protein was secreted from CHO cells and purified; also called cNGF; canine β-NGF
T2 chain: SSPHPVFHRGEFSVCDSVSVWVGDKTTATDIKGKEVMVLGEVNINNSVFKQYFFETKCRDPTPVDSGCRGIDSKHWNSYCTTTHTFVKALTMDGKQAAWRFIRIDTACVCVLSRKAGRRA

B1: humanized mAb can9L12VH_HM855939 / can9L12VL (antibody, V domains shown)
VH: QVQLVESGGGVVQPGGSLRLSCAASGFTFSSHGMHWVRQAPGKGLEWVSVINSGGSSTYYADSVKGRFTISRDNSKNTLYLQMNSLRAEDTAVYYCAKESVGGWEQLVGPHFDYWGQGTLVIVSS
VL: QSVLTQPTSVSGSLGQRVTISCSGSTNNIGILGASWYQLFPGKAPKLLVYGNGNRPSGVPDRFSGADSGDSVTLTITGLQAEDEADYYCQSFDTTLGAHVFGGGTHLTVL
B2: humanized mAb can9L12VH / can9L12VL_M94116_65698 (antibody, V domains shown)
VH: EVQLVESGGDLVKPGGSLRLSCVASGFTFSSHGMHWVRQSPGKGLQWVAVINSGGSSTYYTDAVKGRFTISRDNAKNTVYLQMNSLRAEDTAMYYCAKESVGGWEQLVGPHFDYWGQGTLVIVSS
VL: QSVLTQPTSVSGAPGQRVTISCTGSTNNIGILGVHWYQQLPGTAPKLLIYGNGNRPSGVPDRFSGADSGDSVSLAITGLQAEDEADYYCQSFDTTLGAHVFGGGTHLTVL
B3: humanized mAb can9L12VH_X92218 / can9L12VL (antibody, V domains shown)
VH: B1 VH with Q1E, V11L, H35S
VL: B1 VL
B4: humanized mAb can48L2VH_HM855323.1 / can48L2VL_Z22192.1 (antibody, V domains shown)
VH: EVQLVESGGGLVKPGGSLRLSCAASGFTFSTYGINWVRQAPGKGLEWVSYISSGGSSTYYADSVKGRFTISRDNAKNSLYLQMNSLRAEDTAVYYCAGSRYTYAYGGGYEFHFWGQGTLVTVSS
VL: QSVVTQPPSVSGAPGQRVTISCTGSTMDIDIFGVSWYQQLPGTAPKLLIYGDGDRPSGVPDRFSGSKSGASASLAITGLQAEDEADYHCQSGDSTLGALAIFGGGTHVTVL
B5: humanized mAb can48L2VH_HM855336.1 / can48L2VL_Z22192.1_P14L (antibody, V domains shown)
VH: B4 VH with K13Q, I34M, T58I
VL: B4 VL with P14L
B6: humanized mAb can48L2VH_HM855323.1 / can48L2VL_Z22192.1_P14L (antibody, V domains shown)
VH: B4 VH
VL: B4 VL with P14L
B7: humanized mAb can48L2VH_HM855323.1 / can48L2VL_Z22192.1_P8A (antibody, V domains shown)
VH: B4 VH
VL: B4 VL with P8A
B8: humanized mAb can48L2VH_HM855336.1 / can48L2VL_Z22192.1_P8A (antibody, V domains shown)
VH: B4 VH with K13Q, I34M, T58I
VL: B4 VL with P8A
B9: humanized mAb can48L2VH_HM855336.1 / can48L2VL_Z22192.1 (antibody, V domains shown)
VH: B4 VH with K13Q, I34M, T58I
VL: B4 VL
B10: can9L12VH_I50A (antibody, V domains shown)
VH: B2 VH with I51A
VL: B1 VL
B11: can9L12VH_D113A (antibody, V domains shown)
VH: B2 VH with D113A
VL: B1 VL
B12: can48L2VL_I101A (antibody, V domains shown)
VH: B4 VH with G10D, A23V, E46Q, S49A, S63P, N74D, S78M, V93I
VL: QAVLNQPASVSGALGQKVTISCSGSTMDIDIFGVSWYQQLPGKAPKLLVDSDGDRPSGIPDRFSGSRSGNSGTLTITGLQAEDEADYHCQSGDSTLGALAAFGGGTHVTVL
notes: CDR scanning mutant of ZTS-842 (48L2)
B13: can48L2VL_T26A (antibody, V domains shown)
VH: B4 VH with G10D, A23V, E46Q, S49A, S63P, N74D, S78M, V93I
VL: B12 VL with T26A, A101I
notes: as for B12
B14: can48L2VL_L96A (antibody, V domains shown)
VH: B4 VH with G10D, A23V, E46Q, S49A, S63P, N74D, S78M, V93I
VL: B12 VL with L96A, A101I
notes: as for B12
B15: can48L2VL_S51A (antibody, V domains shown)
VH: B4 VH with G10D, A23V, E46Q, S49A, S63P, N74D, S78M, V93I
VL: B12 VL with S51A, A101I
notes: as for B12
B16: can48L2VL_L99A (antibody, V domains shown)
VH: B4 VH with G10D, A23V, E46Q, S49A, S63P, N74D, S78M, V93I
VL: B12 VL with L99A, A101I
notes: as for B12
B17: can48L2VL_T95A (antibody, V domains shown)
VH: B4 VH with G10D, A23V, E46Q, S49A, S63P, N74D, S78M, V93I
VL: B12 VL with T95A, A101I
notes: as for B12
B18: can48L2VL_M27A (antibody, V domains shown)
VH: B4 VH with G10D, A23V, E46Q, S49A, S63P, N74D, S78M, V93I
VL: B12 VL with M27A, A101I
notes: as for B12
B19: can48L2VL_Q90A (antibody, V domains shown)
VH: B4 VH with G10D, A23V, E46Q, S49A, S63P, N74D, S78M, V93I
VL: B12 VL with Q90A, A101I
notes: as for B12
B20: can48L2VL_S94A (antibody, V domains shown)
VH: B4 VH with G10D, A23V, E46Q, S49A, S63P, N74D, S78M, V93I
VL: B12 VL with S94A, A101I
notes: as for B12
B21: can48L2VL_S91A (antibody, V domains shown)
VH: B4 VH with G10D, A23V, E46Q, S49A, S63P, N74D, S78M, V93I
VL: B12 VL with S91A, A101I
notes: as for B12

The target of the first assay is T1, human NGF. As to the kind of experiment: SPR (Biacore), human NGF amine-coupled on chip, antibody injected. How it is done: Antibody binding affinities of the antibodies against human NGF (SEQ ID NO.66) were determined by surface plasmon resonance (SPR). Human NGF was immobilized on the surface of a BIACORE chip by direct amine coupling. Various concentrations of the described humanized anti-NGF antibodies were injected over the human NGF surfaces while the association of the antibody to the antigen and the dissociation of the formed complex were monitored in real time. Kinetic analysis was performed to obtain the equilibrium dissociation constant (KD).
A general note: Surface plasmon resonance follows binding to a sensor surface in real time, without labels.
One may read the Kd as the equilibrium constant for the complex coming apart. For orientation: koff means the first-order rate constant of dissociation. Low readings indicate a long-lived complex, high ones a short-lived complex. Broadly, the kon is the rate constant with which the complex forms. Molecule B1 showed a Kd of 4.12 nM, an off-rate constant (koff) of 0.00161 s⁻¹ and a kon of 390000 M⁻¹ s⁻¹.

With B2, the Kd is 9.19 nM, the koff turned out to be 0.00197 s⁻¹ and the kon amounted to 214000 M⁻¹ s⁻¹.

Take B3: the dissociation constant (Kd) worked out at 0.126 nM, the off-rate constant (koff) was determined as 3.78e-05 s⁻¹ and the kon was determined as 301000 M⁻¹ s⁻¹.

Molecule B4 displayed a Kd of 1.54 nM, an off-rate constant (koff) of 0.000256 s⁻¹ and an on-rate (kon) of 167000 M⁻¹ s⁻¹.

Molecule B5 returned a Kd of 1.49 nM, a koff of 0.000422 s⁻¹ and a kon of 283000 M⁻¹ s⁻¹.

As for B6, the Kd came out at 0.00102 nM, the off-rate constant (koff) stood at 1.46e-07 s⁻¹ and the association rate constant (kon) was 144000 M⁻¹ s⁻¹.

Regarding B7, binding was put at a Kd of 1.54 nM, the koff was 0.000315 s⁻¹ and the kon was found to be 205000 M⁻¹ s⁻¹.

In turn, B8 gave an equilibrium dissociation constant (Kd) of 0.841 nM, a koff of 0.000212 s⁻¹ and an association rate constant (kon) of 252000 M⁻¹ s⁻¹.

On to B9, for which the Kd turned out to be 1.25 nM, the koff worked out at 0.000337 s⁻¹ and the kon amounted to 269000 M⁻¹ s⁻¹.

For a further assay, the target named is T2, canine NGF. The experiment in a line: SPR (Biacore T200), 100 nM mAb on NGF chip, similarity to parent mAb. Put shortly: (§1)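 CDR alanine-scan mutants of the anti-NGF mAb were each run at 100 nM over an NGF-coated Biacore T200 chip. A threshold band was set from the mean response units of four parent-mAb replicates ±3 SD, covering both on- and off-rate phases. The score is the percentage of each mutant's data points falling inside that band.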
Consider B10, for which the “Percent Similarity Score (KD on cN)” value came out at 100%.

On to B11, for which the “Percent Similarity Score (KD on cN)” value turned out to be 100%.

On to B12, for which the “Percent Similarity Score (KD on cN)” value worked out at 97.3%.

Turning to B13, the “Percent Similarity Score (KD on cN)” value came to 97.3%.

As to B14, the “Percent Similarity Score (KD on cN)” value turned out to be 90%.

As for B15, the “Percent Similarity Score (KD on cN)” value came out at 100%.

With B16, the “Percent Similarity Score (KD on cN)” value is 96.8%.

Consider B17, for which the “Percent Similarity Score (KD on cN)” value was 94.9%.

Take B18: the “Percent Similarity Score (KD on cN)” value came out at 28%.

In the case of B19, the “Percent Similarity Score (KD on cN)” value was found to be 94.4%.

On to B20, for which the “Percent Similarity Score (KD on cN)” value was determined as 97.8%.

For the molecule B21, the “Percent Similarity Score (KD on cN)” value came out at 59.6%.

A further assay deals with T3, rat NGF (rat, UniProt P25427 122-241).
T3 construct: also called rN
T3 sequence (P25427 122-241 limits assumed): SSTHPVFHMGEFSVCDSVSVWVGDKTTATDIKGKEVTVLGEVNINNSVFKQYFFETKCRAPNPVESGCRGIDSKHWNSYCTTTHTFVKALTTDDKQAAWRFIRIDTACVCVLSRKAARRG
The description is as above. Put shortly: as §1
In the case of B10, the “Percent Similarity Score (KD on rN)” value came to 92%.

On to B11, for which the “Percent Similarity Score (KD on rN)” value was 100%.

Consider B12, for which the “Percent Similarity Score (KD on rN)” value turned out to be 99.6%.

B13: the “Percent Similarity Score (KD on rN)” value is 98%.

As to B14, the “Percent Similarity Score (KD on rN)” value came to 93.2%.

Regarding B15, the “Percent Similarity Score (KD on rN)” value came out at 100%.

As for B16, the “Percent Similarity Score (KD on rN)” value turned out to be 98.4%.

Regarding B17, the “Percent Similarity Score (KD on rN)” value is 99.4%.

As for B18, the “Percent Similarity Score (KD on rN)” value amounted to 37.9%.

On to B19, for which the “Percent Similarity Score (KD on rN)” value was 98.7%.

With B20, the “Percent Similarity Score (KD on rN)” value was 99.3%.

As for B21, the “Percent Similarity Score (KD on rN)” value is 76.7%.

A further assay has as its target T1, human NGF. The description is as above. Put shortly: as §1
For B10, the “Percent Similarity Score (KD on hN)” value was found to be 96.6%.

Turning to B11, the “Percent Similarity Score (KD on hN)” value worked out at 100%.

B12: the “Percent Similarity Score (KD on hN)” value amounted to 100%.

With B13, the “Percent Similarity Score (KD on hN)” value amounted to 99.8%.

As for B14, the “Percent Similarity Score (KD on hN)” value was found to be 99.9%.

For the molecule B15, the “Percent Similarity Score (KD on hN)” value was 100%.

Consider B16, for which the “Percent Similarity Score (KD on hN)” value came out at 99.8%.

With B17, the “Percent Similarity Score (KD on hN)” value is 99.6%.

Turning to B18, the “Percent Similarity Score (KD on hN)” value is 72.1%.

In the case of B19, the “Percent Similarity Score (KD on hN)” value came out at 99.9%.

Consider B20, for which the “Percent Similarity Score (KD on hN)” value was determined as 100%.

With B21, the “Percent Similarity Score (KD on hN)” value amounted to 97.5%.
